Measured values published in US20200370067.

Tests used:
[1] = tested on: SHS231 right TALEN (synthetic); assay: cell_activity; details: as pair with left TALEN; 1/81 clones, 293T
[2] = tested on: SHS231 left TALEN (synthetic); assay: cell_activity; details: as pair with right TALEN; 1/81 clones, 293T

“TGTATGCTTTCCTCTTGTTA (double strand) [SHS231 right TALEN half-site]” was tested, and the activity (% targeted integration) [1] was 1.23.
For “TTGGCTAGGGCTAAGGATTA (double strand) [SHS231 left TALEN half-site]”, the activity (% targeted integration) [2] was 1.23.
